Results as given in US20120316071A1.

Columns and labels:
[1] = biological target: rHuman Notch-1/Fc Chimera, CF (R&D Systems Cat#3647-TK) (human) (UniProt P46531); assay: ECL multispot (MSD) binding assay, antigen spotted on plate, Fab in solution; blank spot 215
[2] = biological target: rHuman IGF-1 sR, CF (R&D Systems Cat#391-GR) (human) (UniProt P08069); assay: as above
[3] = biological target: rHuman EGF R/Fc Chimera, CF (R&D Systems Cat#344-ER) (human) (UniProt P00533); assay: as above
[4] = biological target: rHuman Erythropoietin R/Fc Chimera, CF (R&D Systems Cat#963-ER) (human) (UniProt P19235); assay: as above
[5] = biological target: rHuman ErbB2/Fc Chimera, CF (R&D Systems Cat#1129-ER) (human) (UniProt P04626); assay: as above
[6] = biological target: rHuman HGF R/c-MET/Fc Chimera, CF (R&D Systems Cat#358-MT/CF) (human) (UniProt P08581); assay: as above
[7] = biological target: rHuman P-Cadherin/Fc Chimera, CF (R&D Systems Cat#861-PC) (human) (UniProt P22223); assay: as above
[8] = biological target: rHuman CD44/Fc Chimera, CF (R&D Systems Cat#3660-CD) (human) (UniProt P16070); assay: as above
[9] = biological target: rHuman Notch-1/Fc Chimera, CF (R&D Systems Cat#3647-TK) (human) (UniProt P46531); assay: ECL multispot (MSD) binding assay, antigen spotted on plate, Fab in solution; blank spot 306
[10] = biological target: rHuman IGF-1 sR, CF (R&D Systems Cat#391-GR) (human) (UniProt P08069); assay: as above
[11] = biological target: rHuman EGF R/Fc Chimera, CF (R&D Systems Cat#344-ER) (human) (UniProt P00533); assay: as above
[12] = biological target: rHuman ErbB2/Fc Chimera, CF (R&D Systems Cat#1129-ER) (human) (UniProt P04626); assay: as above
[13] = biological target: rHuman HGF R/c-MET/Fc Chimera, CF (R&D Systems Cat#358-MT/CF) (human) (UniProt P08581); assay: as above
[14] = biological target: rHuman P-Cadherin/Fc Chimera, CF (R&D Systems Cat#861-PC) (human) (UniProt P22223); assay: as above
[15] = biological target: rHuman CD44/Fc Chimera, CF (R&D Systems Cat#3660-CD) (human) (UniProt P16070); assay: as above
[16] = biological target: rHuman Notch-1/Fc Chimera, CF (R&D Systems Cat#3647-TK) (human) (UniProt P46531); assay: ECL multispot (MSD) binding assay, antigen spotted on plate, Fab in solution; blank spot 277
[17] = biological target: rHuman IGF-1 sR, CF (R&D Systems Cat#391-GR) (human) (UniProt P08069); assay: as above
[18] = biological target: rHuman EGF R/Fc Chimera, CF (R&D Systems Cat#344-ER) (human) (UniProt P00533); assay: as above
[19] = biological target: rHuman Erythropoietin R/Fc Chimera, CF (R&D Systems Cat#963-ER) (human) (UniProt P19235); assay: as above
[20] = biological target: rHuman ErbB2/Fc Chimera, CF (R&D Systems Cat#1129-ER) (human) (UniProt P04626); assay: as above
[21] = biological target: rHuman HGF R/c-MET/Fc Chimera, CF (R&D Systems Cat#358-MT/CF) (human) (UniProt P08581); assay: as above
[22] = biological target: rHuman P-Cadherin/Fc Chimera, CF (R&D Systems Cat#861-PC) (human) (UniProt P22223); assay: as above
[23] = biological target: rHuman CD44/Fc Chimera, CF (R&D Systems Cat#3660-CD) (human) (UniProt P16070); assay: as above
[24] = biological target: rHuman Notch-1/Fc Chimera, CF (R&D Systems Cat#3647-TK) (human) (UniProt P46531); assay: ECL multispot (MSD) binding assay, antigen spotted on plate, Fab in solution; blank spot 349
[25] = biological target: rHuman IGF-1 sR, CF (R&D Systems Cat#391-GR) (human) (UniProt P08069); assay: as above
[26] = biological target: rHuman EGF R/Fc Chimera, CF (R&D Systems Cat#344-ER) (human) (UniProt P00533); assay: as above
[27] = biological target: rHuman ErbB2/Fc Chimera, CF (R&D Systems Cat#1129-ER) (human) (UniProt P04626); assay: as above
[28] = biological target: rHuman HGF R/c-MET/Fc Chimera, CF (R&D Systems Cat#358-MT/CF) (human) (UniProt P08581); assay: as above
[29] = biological target: rHuman P-Cadherin/Fc Chimera, CF (R&D Systems Cat#861-PC) (human) (UniProt P22223); assay: as above
[30] = biological target: rHuman CD44/Fc Chimera, CF (R&D Systems Cat#3660-CD) (human) (UniProt P16070); assay: as above
[31] = biological target: Recombinant Human DLL4 (delta-like protein 4) (human) (UniProt Q9NR61); assay: ELISA, Fab on coated recombinant human DLL4, signal minus noise
[32] = biological target: Recombinant Human DLL4 (delta-like protein 4) (human) (UniProt Q9NR61); assay: ECL (MSD electrochemiluminescence) binding assay, Fab on immobilised recombinant human DLL4
[33] = biological target: rHuman Notch-1/Fc Chimera, CF (R&D Systems Cat#3647-TK) (human) (UniProt P46531); assay: ECL multispot (MSD) binding assay, antigen spotted on plate, Fab in solution; blank spot 321
[34] = biological target: rHuman IGF-1 sR, CF (R&D Systems Cat#391-GR) (human) (UniProt P08069); assay: as above
[35] = biological target: rHuman EGF R/Fc Chimera, CF (R&D Systems Cat#344-ER) (human) (UniProt P00533); assay: as above
[36] = biological target: rHuman ErbB2/Fc Chimera, CF (R&D Systems Cat#1129-ER) (human) (UniProt P04626); assay: as above
[37] = biological target: rHuman HGF R/c-MET/Fc Chimera, CF (R&D Systems Cat#358-MT/CF) (human) (UniProt P08581); assay: as above
[38] = biological target: rHuman P-Cadherin/Fc Chimera, CF (R&D Systems Cat#861-PC) (human) (UniProt P22223); assay: as above
[39] = biological target: rHuman CD44/Fc Chimera, CF (R&D Systems Cat#3660-CD) (human) (UniProt P16070); assay: as above
[40] = biological target: rHuman Notch-1/Fc Chimera, CF (R&D Systems Cat#3647-TK) (human) (UniProt P46531); assay: ECL multispot (MSD) binding assay, antigen spotted on plate, Fab in solution; blank spot 237
[41] = biological target: rHuman IGF-1 sR, CF (R&D Systems Cat#391-GR) (human) (UniProt P08069); assay: as above
[42] = biological target: rHuman EGF R/Fc Chimera, CF (R&D Systems Cat#344-ER) (human) (UniProt P00533); assay: as above
[43] = biological target: rHuman Erythropoietin R/Fc Chimera, CF (R&D Systems Cat#963-ER) (human) (UniProt P19235); assay: as above
[44] = biological target: rHuman ErbB2/Fc Chimera, CF (R&D Systems Cat#1129-ER) (human) (UniProt P04626); assay: as above
[45] = biological target: rHuman HGF R/c-MET/Fc Chimera, CF (R&D Systems Cat#358-MT/CF) (human) (UniProt P08581); assay: as above
[46] = biological target: rHuman P-Cadherin/Fc Chimera, CF (R&D Systems Cat#861-PC) (human) (UniProt P22223); assay: as above
[47] = biological target: rHuman CD44/Fc Chimera, CF (R&D Systems Cat#3660-CD) (human) (UniProt P16070); assay: as above

Fab VH5-51_IGHD5-18*01>3_IGHJ4*01 G100K/G104T I51A & V3-4_IGLJ1*01
ECL signal [1]: 612
ECL signal [2]: 828
ECL signal [3]: 803
ECL signal [4]: 497
ECL signal [5]: 1090
ECL signal [6]: 875
ECL signal [7]: 432
ECL signal [8]: 517

Fab VH5-51_IGHD5-18*01>3_IGHJ4*01 G100K/G104T D55A & V3-4_IGLJ1*01
ECL signal [9]: 683
ECL signal [10]: 898
ECL signal [11]: 729
ECL signal [12]: 1030
ECL signal [13]: 856
ECL signal [14]: 310
ECL signal [15]: 606

Fab VH5-51_IGHD5-18*01>3_IGHJ4*01 G100K/G104T Y52A & V3-4_IGLJ1*01
ECL signal [16]: 566
ECL signal [17]: 827
ECL signal [18]: 745
ECL signal [19]: 584
ECL signal [20]: 989
ECL signal [21]: 803
ECL signal [22]: 334
ECL signal [23]: 591

Fab VH5-51_IGHD5-18*01>3_IGHJ4*01 G100K/G104T P53A & V3-4_IGLJ1*01
ECL signal [24]: 536
ECL signal [25]: 943
ECL signal [26]: 976
ECL signal [27]: 1140
ECL signal [28]: 1000
ECL signal [29]: 424
ECL signal [30]: 556

Fab VH5-51_IGHD5-18*01>3_IGHJ4*01 G100K/G104T T58D/K & V3-4_IGLJ1*01
ELISA (Signal-Noise) [31]: 0.03
ECL signal [32]: 823

Fab VH5-51_IGHD5-18*01>3_IGHJ4*01 G100K/G104T D57A & V3-4_IGLJ1*01
ECL signal [33]: 523
ECL signal [34]: 982
ECL signal [35]: 915
ECL signal [36]: 1200
ECL signal [37]: 1130
ECL signal [38]: 365
ECL signal [39]: 600

Fab VH5-51_IGHD5-18*01>3_IGHJ4*01 G100K/G104T I50A & V3-4_IGLJ1*01
ECL signal [40]: 443
ECL signal [41]: 785
ECL signal [42]: 794
ECL signal [43]: 523
ECL signal [44]: 925
ECL signal [45]: 822
ECL signal [46]: 343
ECL signal [47]: 632
